{
  "source": "paper PMC4367193",
  "about": "(Biochemistry, 2009)",
  "molecules": {"B1": {"name": "ECP: Eosinophil cationic protein, very similar charge and molecular mass compared to MBP, negative control (protein, UniProt P12724 28-160, looked up)", "Eosinophil cationic protein": "RPPQFTRAQWFAIQHISLNPPRCTIAMRAINNYRWRCKNQNTFLRTTFANVVNVCGNQSIRCPHNRTLNNCHRSRFRVPLLHCDLINPGAQNISNCTYADRPGRRFYVVACDNRDPRDSPRYPVVPVHLDTTI"}, "B2": {"name": "MBP: Purified human MBP (purchased from Chemicon International) (protein, UniProt P02686 1-304, looked up)", "Myelin basic protein": "MGNHAGKRELNAEKASTNSETNRGESEKKRNLGELSRTTSEDNEVFGEADANQNNGTSSQDTAVTDSKRTADPKNAWQDAHPADPGSRPHLIRLFSRDAPGREDNTFKDRPSESDELQTIQEDSAATSESLDVMASQKRPSQRHGSKYLATASTMDHARHGFLPRHRDTGILDSIGRFFGGDRGAPKRGSGKDSHHPARTAHYGSLPQKSHGRTQDENPVVHFFKNIVTPRTPPPSQGKGRGLSLSRFSWGAEGQRPGFGYGGRASDYKSAHKGFKGVDAQGTLSKIFKLGGRDSRSGSPMARR"}},
  "key": {"[1]": {"target": "T1, Aβ42WT (Homo sapiens, UniProt P05067)", "T1 sequence (P05067 672-713 limits assumed)": "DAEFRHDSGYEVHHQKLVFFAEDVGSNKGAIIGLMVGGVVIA", "experiment": "Circular dichroism spectroscopy, Aβ42WT β-sheet formation", "assay_type": "biochemical"}, "[2]": {"target": "T1, Aβ42WT", "assay_type": "biochemical", "details": "37°C"}, "[3]": {"target": "T1, Aβ42WT", "experiment": "Surface plasmon resonance, binding to immobilised Aβ42WT"}, "[4]": {"target": "Aβ40WT", "experiment": "Surface plasmon resonance, binding to Aβ40WT", "details": "ECP negative control; SPR"}, "[5]": {"target": "Aβ40DI", "experiment": "Surface plasmon resonance, binding to Aβ40DI", "details": "ECP negative control; SPR"}, "[6]": {"tested_on": "MBP/Aβ42WT interaction", "experiment": "Competitive co-immunoprecipitation, binding of Aβ42WT to MBP", "design": "species or system human", "details": "data not shown"}, "[7]": {"tested_on": "Aβ", "assay_type": "binding, human", "details": "soluble cortical homogenate, polyclonal anti-MBP IgG, Fig. 1D"}, "[8]": {"tested_on": "Aβ40DI", "details": "previous study; ref [25] Hoos et al. 2007; cited from earlier work"}, "[9]": {"target": "T1, Aβ42WT", "experiment": "Attenuated total reflection infrared spectroscopy, Aβ42WT β-sheet formation", "assay_type": "biochemical", "details": "Aβ42 50 μM in PBS, MBP 6.25 μM, 37°C, 24 h; second-derivative ATR-IR"}, "[10]": {"target": "T1, Aβ42WT", "experiment": "Thioflavin T fluorescence assay, Aβ42WT fibril formation", "assay_type": "biochemical", "details": "Aβ42 12.5 μM, MBP 1.56 μM, 37°C, 150 mM NaCl; triplicate"}, "[11]": {"tested_on": "Aβ", "assay_type": "binding, 5xFAD mouse", "details": "soluble cortical homogenate, polyclonal anti-MBP IgG, Fig. 1D"}},
  "data": [
    {"molecule": "Aβ42WT: wild-type Aβ42 peptide, synthesized by solid-phase Fmoc chemistry", "values": [
      {"measurement": "Time at which β-sheet formation begins to plateau (CD, 215 nm)", "setting": "[1]; Aβ42WT alone 50 μM, 37°C, 11 mM NaCl, results section", "result": 24, "unit": "h"},
      {"measurement": "Length of oligomeric structures", "setting": "[2]; Aβ42WT alone, 6 h", "result": "up to 40 nm"},
      {"measurement": "Average height of fibrillar structures", "setting": "[2]; Aβ42WT alone, 24 h", "result": "over 4 nm"}
    ]},
    {"molecule": "B1", "values": [
      {"measurement": "Detectable binding to Aβ42WT ligand surface", "setting": "[3]; concentrations up to 32-fold greater than MBP, SPR", "result": "No binding could be detected"},
      {"measurement": "Binding affinity (KD) for Aβ40WT, ECP", "setting": "[4]", "result": "not detected"},
      {"measurement": "Binding affinity (KD) for Aβ40DI, ECP", "setting": "[5]", "result": "not detected"},
      {"measurement": "Competition of ECP with MBP for binding to Aβ42", "setting": "[6]", "result": "did not compete for MBP binding to Aβ42"}
    ]},
    {"molecule": "B2", "values": [
      {"measurement": "Absolute CD ellipticity at 215 nm with MBP", "setting": "[1]; MBP alone and Aβ42WT (50 μM) with MBP (6.25 μM), 37°C, 0-36 h", "result": "remained low and decreased somewhat over the course of incubation"},
      {"measurement": "Conformation of MBP alone by CD", "setting": "[1]; MBP alone, throughout the time-course, data not shown", "result": "characteristic random-coil conformation"},
      {"measurement": "Interaction of MBP with Aβ in human AD brain homogenate", "setting": "[7]", "result": "MBP can interact with Aβ peptides"},
      {"measurement": "KD with Aβ42WT compared with Aβ40DI", "setting": "[3]; calculated KD between MBP and Aβ42WT versus affinity between MBP and Aβ40DI (ref [25])", "result": "comparable to the affinity between MBP and Aβ40DI"},
      {"measurement": "KD with Aβ42WT compared with Aβ40WT", "setting": "[3]; calculated KD between MBP and Aβ42WT versus that between MBP and Aβ40WT (ref [25])", "result": "stronger than that between MBP and Aβ40WT"},
      {"measurement": "Oligomeric structures at 6 h in the presence of MBP", "setting": "[2]; 6 h, AFM and TEM", "result": "marked reduction"},
      {"measurement": "Fibrils at 24 h in the presence of MBP", "setting": "[2]; 24 h, TEM", "result": "noticeably absent"},
      {"measurement": "Inhibition of fibrillar assembly of Aβ40DI", "setting": "[8]", "result": "effectively inhibits the fibrillar assembly of Aβ40DI"},
      {"measurement": "β-turn peaks at 1681 and 1675 cm^−1 on addition of MBP", "setting": "[9]", "result": "remained unchanged even with the addition of MBP"},
      {"measurement": "Thioflavin-T fluorescence in samples containing Aβ42WT and MBP", "setting": "[10]", "result": "lack of thioflavin-T fluorescence"},
      {"measurement": "Interaction of MBP with Aβ in 5xFAD mouse brain homogenate", "setting": "[11]", "result": "MBP can interact with Aβ peptides"}
    ]}
  ]
}
